# Experimental data: the supplement of paper PMC9112550, “Optimization of the antimicrobial peptide Bac7 by deep mutational scanning” (BMC Biology, 2022)
# System: Escherichia coli TOP10
# Assay: shrunken log2 fold change of peptide-encoding DNA abundance (4.5 h post-induction vs induction); higher = less antimicrobial activity (less host growth inhibition)
# Conditions: time post-induction: 4.5 h; library: site-saturation at positions 5, 18, 19, 20
# 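Also: peptides expressed intracellularly from a pBAD plasmid library in pooled LB shake-flask culture, induced with 0.3% L-arabinose, DNA abundance read by NGS, three biological replicates, DESeq2 with apeglm shrinkage.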
row,Sequence,shrunken log2 fold change
1,RRIRRRPPRLPRPRPRPAHYPRP,0.445
2,RRIRRRPPRLPRPRPRPAKYPRP,0.0401
3,RRIRRRPPRLPRPRPRPALMPRP,0.195
4,RRIRRRPPRLPRPRPRPALQPRP,1.92
5,RRIRRRPPRLPRPRPRPAMHPRP,0.422
6,RRIRRRPPRLPRPRPRPAMKPRP,0.373
7,RRIRRRPPRLPRPRPRPANIPRP,0.256
8,RRIRRRPPRLPRPRPRPAPIPRP,0.92
9,RRIRRRPPRLPRPRPRPARCPRP,0.42
10,RRIRRRPPRLPRPRPRPASNPRP,0.472
11,RRIRRRPPRLPRPRPRPAYHPRP,0.0468
12,RRIRRRPPRLPRPRPRPCCMPRP,-0.18
13,RRIRRRPPRLPRPRPRPCETPRP,0.0583
14,RRIRRRPPRLPRPRPRPCFHPRP,-0.00606
15,RRIRRRPPRLPRPRPRPCHCPRP,-0.0688
16,RRIRRRPPRLPRPRPRPCKTPRP,-0.103
17,RRIRRRPPRLPRPRPRPCKYPRP,-0.915
18,RRIRRRPPRLPRPRPRPCLIPRP,-0.38
19,RRIRRRPPRLPRPRPRPCNHPRP,-0.011
20,RRIRRRPPRLPRPRPRPCNKPRP,-0.137

row,Sequence,shrunken log2 fold change
1,RRIRRRPPRLPRPRPRPCNLPRP,-0.0686
2,RRIRRRPPRLPRPRPRPCNQPRP,-0.0711
3,RRIRRRPPRLPRPRPRPCNSPRP,0.00408
4,RRIRRRPPRLPRPRPRPCPCPRP,-0.176
5,RRIRRRPPRLPRPRPRPCQFPRP,-0.0684
6,RRIRRRPPRLPRPRPRPCSGPRP,-0.0988
7,RRIRRRPPRLPRPRPRPCTCPRP,-0.111
8,RRIRRRPPRLPRPRPRPCTDPRP,-0.115
9,RRIRRRPPRLPRPRPRPCTHPRP,0.176
10,RRIRRRPPRLPRPRPRPCTPPRP,-0.0236
11,RRIRRRPPRLPRPRPRPCTYPRP,-0.27
12,RRIRRRPPRLPRPRPRPCVDPRP,0.163
13,RRIRRRPPRLPRPRPRPCVGPRP,-0.147
14,RRIRRRPPRLPRPRPRPCVKPRP,0.252
15,RRIRRRPPRLPRPRPRPCWRPRP,0.00446
16,RRIRRRPPRLPRPRPRPDAFPRP,0.737
17,RRIRRRPPRLPRPRPRPDCDPRP,0.222
18,RRIRRRPPRLPRPRPRPDCFPRP,0.681
19,RRIRRRPPRLPRPRPRPDDHPRP,-0.276
20,RRIRRRPPRLPRPRPRPDDWPRP,0.359

row,Sequence,shrunken log2 fold change
1,RRIRRRPPRLPRPRPRPDEFPRP,0.138
2,RRIRRRPPRLPRPRPRPDELPRP,0.614
3,RRIRRRPPRLPRPRPRPDFKPRP,0.151
4,RRIRRRPPRLPRPRPRPDKMPRP,-0.122
5,RRIRRRPPRLPRPRPRPDMDPRP,-0.108
6,RRIRRRPPRLPRPRPRPDPWPRP,0.335
7,RRIRRRPPRLPRPRPRPDRQPRP,-0.114
8,RRIRRRPPRLPRPRPRPDSDPRP,0.021
9,RRIRRRPPRLPRPRPRPDSLPRP,0.0868
10,RRIRRRPPRLPRPRPRPDSVPRP,7.52e-05
11,RRIRRRPPRLPRPRPRPDTVPRP,0.0777
12,RRIRRRPPRLPRPRPRPDVQPRP,-0.0867
13,RRIRRRPPRLPRPRPRPDWCPRP,0.201
14,RRIRRRPPRLPRPRPRPDWDPRP,-0.0829
15,RRIRRRPPRLPRPRPRPDWPPRP,0.556
16,RRIRRRPPRLPRPRPRPDWVPRP,0.037
17,RRIRRRPPRLPRPRPRPDYKPRP,-0.284
18,RRIRRRPPRLPRPRPRPDYLPRP,0.152
19,RRIRRRPPRLPRPRPRPEAGPRP,0.731
20,RRIRRRPPRLPRPRPRPEAKPRP,4.76
